Measured values published in paper PMC8762078, “An ALS-associated variant of the autophagy receptor SQSTM1/p62 reprograms binding selectivity toward the autophagy-related hATG8 proteins” (The Journal of Biological Chemistry, 2021).

Biological target: p62 WT-AIM peptide (human)
Assay: native MS; ESI-MS competition binding under nondenaturing conditions: each hATG8 titrated into an equimolar mixture of WT-AIM and L341V-AIM peptides (each 10 μM); read-out is the ratio of peak intensities of unbound WT and L341V peptides; ratios given for 20 μM hATG8; two independent experiments

Chain of GABARAPL1 (Q9H0R8 whole entry): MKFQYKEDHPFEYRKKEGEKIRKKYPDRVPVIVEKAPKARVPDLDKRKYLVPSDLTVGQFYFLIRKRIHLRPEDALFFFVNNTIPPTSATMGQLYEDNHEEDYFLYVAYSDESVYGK

Work on “GABARAPL1 (from UniProt Q9H0R8 1-117) (natural protein)” yielded a ratio of unbound WT:L341V AIM peptides at 20 μM hATG8 (reference: L341V-AIM) of 0.5.
